Laboratory results reported in paper PMC7214467 (Nature Communications, 2020).

B1: TCR/CD3 IgG BsAb with the 1G4_122 NY-ESO-1 TCR (stabilized Cα/Cβ subunit) and the chimeric SP-34 anti-CD3 arm (bispecific antibody, V domains shown)
VH: EVQLVESGGGLVQPKGSLKLSCAASGFTFNTYAMNWVRQAPGKGLEWVARIRSKYNNYATYYADSVKDRFTISRDDSQSLLYLQMNNLKTEDTAMYYCVRHGNFGNSYVSWFAYWGQGTLVTVSA
VL: QAVVTQESALTTSPGETVTLTCRSSTGAVTTSNYANWVQEKPDHLFTGLIGGTNKRAPGVPARFSGSLIGDKAALTITGAQTEDEAIYFCALWYSNLWVFGGGTKLTVL
notes: soluble 1G4_122 TCR α chain; Cα with the stabilizing mutations as in m1; soluble 1G4_122 TCR β chain; Cβ with the stabilizing mutations as in m2; detected with goat anti-human lambda; Two heavy chains joined by the 7.8.60 Fc heterodimer design; also called IgG-like BsAb; TCR/CD3 bifunctional; source: CHO K1SV KO, transient, secreted, purified (mAbSure resin, preparative size exclusion); copies: + …
B2: TCR/CD3 Tandem BsAb with the stabilized 1G4_122 NY-ESO-1 TCR and the chimeric SP-34 anti-CD3 Fab (bispecific antibody, V domains shown)
VH: B1 VH
VL: B1 VL
notes: soluble 1G4_122 TCR α chain; Cα with the stabilizing mutations as in m1; soluble 1G4_122 TCR β chain; Cβ with the stabilizing mutations as in m2; detected with goat anti-human lambda; also called tandem Fab BsAb; tandem Fab; copies: + + +

Tests used:
[1] = molecular target: HLA-A2/NY-ESO-1 peptide complex on tumor cells (Homo sapiens, HLA-A2 (A*02:01 assumed), …); assay: cell-based or functional assay
CD3 on Jurkat cells = molecular target: T1, CD3 on Jurkat cells (Homo sapiens, endogenous on Jurkat …, UniProt P07766); assay: flow cytometry on cells; Jurkat cells; titrated from 30 μg/mL in 3-fold dilutions, on ice; detected with PE goat anti-human lambda; settings: one partner purified
T1 construct: CD3 of the T cell receptor complex on Jurkat cells; On cells CD3ε stands with the other CD3 chains and the TCR; also called CD3+ Jurkat cells; source: endogenous, on Jurkat cells (ATCC TIB-152)
T1 sequence (P07766 23-207): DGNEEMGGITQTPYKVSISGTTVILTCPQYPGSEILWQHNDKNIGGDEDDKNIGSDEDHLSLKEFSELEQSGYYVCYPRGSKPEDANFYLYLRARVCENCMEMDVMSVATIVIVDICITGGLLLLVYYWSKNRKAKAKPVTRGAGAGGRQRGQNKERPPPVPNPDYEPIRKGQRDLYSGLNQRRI

Row | Binder | T cell redirected lysis of peptide-pulsed Saos-2 cells by primary T cells, 48 h, EC50 [1] [nM] | binding result (CD3 on Jurkat cells) | T cell redirected lysis of peptide-pulsed 624.38 cells by primary T cells, 48 h, EC50 [1] [nM]
1 | B1 | ~1 | binds | –
2 | B2 | ~0.03 | binds | ~0.1
